Data: patent US20070004622A1 (REGEN BIOTECH, published 2007)

Molecular target: αvβ3 integrin (human, UniProt P06756 31-1048; P05106 27-788)
Test: cell-based or functional assay

αvβ3 integrin, sequence (P06756 31-1048, chain 1 of 2): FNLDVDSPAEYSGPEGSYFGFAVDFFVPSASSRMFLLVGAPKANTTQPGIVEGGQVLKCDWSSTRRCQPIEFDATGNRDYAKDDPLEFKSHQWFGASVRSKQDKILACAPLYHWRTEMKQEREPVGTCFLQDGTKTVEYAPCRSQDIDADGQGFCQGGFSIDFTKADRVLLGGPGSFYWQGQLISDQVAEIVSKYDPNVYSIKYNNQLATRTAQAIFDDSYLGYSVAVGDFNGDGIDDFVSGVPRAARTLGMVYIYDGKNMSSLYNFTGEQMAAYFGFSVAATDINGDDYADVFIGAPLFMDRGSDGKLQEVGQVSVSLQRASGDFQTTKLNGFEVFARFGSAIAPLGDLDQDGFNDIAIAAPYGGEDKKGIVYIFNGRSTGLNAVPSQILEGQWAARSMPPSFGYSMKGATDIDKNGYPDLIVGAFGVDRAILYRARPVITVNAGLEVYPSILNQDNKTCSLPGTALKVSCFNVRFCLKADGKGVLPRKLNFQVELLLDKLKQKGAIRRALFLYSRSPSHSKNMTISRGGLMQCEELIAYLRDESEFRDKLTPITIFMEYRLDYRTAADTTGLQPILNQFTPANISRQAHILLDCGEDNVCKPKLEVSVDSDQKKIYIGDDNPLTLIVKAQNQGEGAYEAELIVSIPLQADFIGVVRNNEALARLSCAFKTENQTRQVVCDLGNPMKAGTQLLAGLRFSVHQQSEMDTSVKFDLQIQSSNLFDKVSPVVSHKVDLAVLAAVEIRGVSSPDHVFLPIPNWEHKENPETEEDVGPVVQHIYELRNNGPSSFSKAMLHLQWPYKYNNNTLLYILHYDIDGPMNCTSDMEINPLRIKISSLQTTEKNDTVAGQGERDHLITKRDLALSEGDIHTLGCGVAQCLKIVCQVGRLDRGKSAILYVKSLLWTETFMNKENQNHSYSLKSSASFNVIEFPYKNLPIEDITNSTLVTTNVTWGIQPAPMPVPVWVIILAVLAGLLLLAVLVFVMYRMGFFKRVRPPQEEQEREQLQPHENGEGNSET
αvβ3 integrin, sequence (P05106 27-788, chain 2 of 2): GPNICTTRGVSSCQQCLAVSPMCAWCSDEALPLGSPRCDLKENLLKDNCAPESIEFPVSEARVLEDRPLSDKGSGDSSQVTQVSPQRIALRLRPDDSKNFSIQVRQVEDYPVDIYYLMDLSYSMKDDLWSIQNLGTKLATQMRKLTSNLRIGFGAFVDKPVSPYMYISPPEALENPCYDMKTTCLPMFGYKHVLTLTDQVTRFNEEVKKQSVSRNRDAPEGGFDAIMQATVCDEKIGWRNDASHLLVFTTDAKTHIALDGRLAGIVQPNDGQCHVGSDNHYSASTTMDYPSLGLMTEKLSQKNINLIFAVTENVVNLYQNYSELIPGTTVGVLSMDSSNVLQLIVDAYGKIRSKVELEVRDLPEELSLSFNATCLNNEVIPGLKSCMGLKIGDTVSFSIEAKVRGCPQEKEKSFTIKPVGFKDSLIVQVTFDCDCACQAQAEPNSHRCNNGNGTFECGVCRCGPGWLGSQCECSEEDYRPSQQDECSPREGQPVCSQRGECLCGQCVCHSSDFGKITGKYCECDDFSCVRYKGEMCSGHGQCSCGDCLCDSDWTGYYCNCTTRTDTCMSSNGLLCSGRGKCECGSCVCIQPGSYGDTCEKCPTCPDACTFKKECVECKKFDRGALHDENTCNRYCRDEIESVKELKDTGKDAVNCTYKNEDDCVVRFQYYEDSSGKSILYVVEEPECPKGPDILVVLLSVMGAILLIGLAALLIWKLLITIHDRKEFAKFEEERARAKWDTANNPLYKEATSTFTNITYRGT

Binder: KELANILKYHIGDEILVS [YH18 synthetic peptide derived from the fourth fas-1 domain of βig-h3 (D-IV YH18)]
- IC50 of inhibition of HUVEC tube formation on Matrigel: 500 µM
